Columns and labels:
Test in all cases: cell-based or functional assay
[1] = biological target: HIV-1CM244 Env (HIV-1 CM244)
[2] = biological target: HIV-1BG505 Env (HIV-1 BG505)
[3] = biological target: HIV-1C1086 Env (HIV-1 C1086)
[4] = biological target: HIV-1ZM109 Env (HIV-1 ZM109)
HIV-1AD8 Env (HIV-1 AD8) = biological target: HIV-1AD8 Env (HIV-1 AD8)
[5] = biological target: HIV-1JRCSF Env (HIV-1 JRCSF) (UniProt P20871)
HIV-1YU2 Env (HIV-1 YU2) = HIV-1YU2 Env (HIV-1 YU2) (UniProt P35961)
Chain of HIV-1YU2 Env (HIV-1 YU2) (P35961 32-843 limits assumed): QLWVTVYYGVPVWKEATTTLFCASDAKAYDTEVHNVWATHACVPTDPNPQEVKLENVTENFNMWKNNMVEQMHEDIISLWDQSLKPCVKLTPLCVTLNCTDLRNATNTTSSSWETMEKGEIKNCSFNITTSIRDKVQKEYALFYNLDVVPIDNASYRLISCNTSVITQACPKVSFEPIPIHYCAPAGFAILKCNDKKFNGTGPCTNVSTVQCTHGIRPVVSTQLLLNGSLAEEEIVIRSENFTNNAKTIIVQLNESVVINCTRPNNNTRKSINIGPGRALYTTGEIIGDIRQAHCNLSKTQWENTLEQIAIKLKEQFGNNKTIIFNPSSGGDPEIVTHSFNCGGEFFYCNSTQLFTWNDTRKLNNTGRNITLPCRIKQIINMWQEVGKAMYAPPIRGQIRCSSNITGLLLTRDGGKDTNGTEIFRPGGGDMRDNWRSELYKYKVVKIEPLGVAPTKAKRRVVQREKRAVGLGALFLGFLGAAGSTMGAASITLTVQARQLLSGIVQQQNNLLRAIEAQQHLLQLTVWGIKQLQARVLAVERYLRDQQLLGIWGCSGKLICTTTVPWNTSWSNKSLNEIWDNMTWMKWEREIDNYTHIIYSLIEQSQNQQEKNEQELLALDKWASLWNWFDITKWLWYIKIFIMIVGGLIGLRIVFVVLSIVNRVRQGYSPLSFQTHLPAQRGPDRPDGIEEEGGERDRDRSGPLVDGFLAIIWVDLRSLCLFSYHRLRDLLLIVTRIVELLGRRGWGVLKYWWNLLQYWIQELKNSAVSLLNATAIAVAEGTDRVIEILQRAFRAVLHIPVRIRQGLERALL

Chain of HIV-1JRCSF Env (HIV-1 JRCSF) (P20871 32-848 limits assumed): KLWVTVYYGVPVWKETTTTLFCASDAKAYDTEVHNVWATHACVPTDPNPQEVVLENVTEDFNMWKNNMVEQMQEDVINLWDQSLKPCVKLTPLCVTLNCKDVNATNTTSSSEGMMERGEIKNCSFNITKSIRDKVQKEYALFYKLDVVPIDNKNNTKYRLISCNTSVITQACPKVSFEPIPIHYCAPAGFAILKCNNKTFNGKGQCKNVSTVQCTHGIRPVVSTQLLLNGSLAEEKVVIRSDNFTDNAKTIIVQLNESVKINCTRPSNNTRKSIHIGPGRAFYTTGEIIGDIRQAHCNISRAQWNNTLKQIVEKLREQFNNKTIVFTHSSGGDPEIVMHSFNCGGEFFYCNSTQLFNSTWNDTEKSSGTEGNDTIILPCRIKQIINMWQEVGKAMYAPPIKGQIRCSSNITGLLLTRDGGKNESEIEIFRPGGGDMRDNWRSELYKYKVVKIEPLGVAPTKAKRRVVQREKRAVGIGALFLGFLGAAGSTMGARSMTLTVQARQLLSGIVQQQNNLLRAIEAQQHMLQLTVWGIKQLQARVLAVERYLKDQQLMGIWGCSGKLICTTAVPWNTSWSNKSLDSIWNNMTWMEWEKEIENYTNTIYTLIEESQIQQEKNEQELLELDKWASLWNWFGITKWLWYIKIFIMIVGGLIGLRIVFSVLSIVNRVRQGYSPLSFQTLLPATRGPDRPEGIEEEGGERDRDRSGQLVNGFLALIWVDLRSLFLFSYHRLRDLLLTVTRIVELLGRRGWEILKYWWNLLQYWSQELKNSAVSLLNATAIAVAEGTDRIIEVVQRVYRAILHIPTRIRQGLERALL

For 17b-CD4 conjugate, the Neutralization IC50 [1] was 0.609 µg/mL, the Neutralization IC50 [2] was 2.64 µg/mL and the Neutralization IC50 [3] was 0.269 µg/mL. The Neutralization IC50 [4] was 0.113 µg/mL, the Neutralization IC50 (HIV-1AD8 Env (HIV-1 AD8)) was 0.877 µg/mL and the Neutralization IC50 [5] was 0.807 µg/mL. It also gave a Neutralization IC50 (HIV-1YU2 Env (HIV-1 YU2)) of 0.082 µg/mL.
